{"source": "the DeepSol protein solubility set", "data": [{"assay": "soluble on expression in E. coli; label from the status in PepcDB or PDB records", "values": [{"sequence": "MAGDPMLLTGTLKREAGNKMGQKPKIAIFGGGTGLSVLLRGLKHKPVDITAIVTVADDGGSSGRLRNELKIPPPGDIRNVLAALSDVEPLVEDLFQHRFNKGNDLTGHSLGNLILAAMTNITGDFFHAVTEMSKVLNVRGKVLPAANASVVLHAEMEDGRVVSGESTIPEYGQRIKRVFLTPEQIDPLPETIDVIREADLIIIGPGSLYTSILPNLLVPKIGEEVIKAPAKKVYICNVMTQPGETLHYTAADHVKALNQHMGCGFIDTILVNSEDIPDEIKRKYEMESARPVDFDIEELKAMGLEVIRDQIVTYKNDVIRHDTHKVASLLVDLLKELEHHHHHH", "soluble on expression in E. coli": "soluble"}, {"sequence": "MAGDPMMKKDKDTNDQKSESHMKHNDESKVPEDMTSTNEGEFKVGDKVTITAGHMPGMKGAEATVKGAYKTYAYVVSYKPTNGNEKVNNHKWVVNEEIKDAPKDGFSKDDTVKLEANHMSGMKGATANIDNVKKTTVYVVDYKSKDNGKIIKNHKWMTGNELKARLEHHHHHH", "soluble on expression in E. coli": "soluble"}, {"sequence": "MAGDPMNSLIDRRLNGRNKSAVNRERFLRRYKDQIRKAVQDLIRERSISDMDQGGEINLPARDISEPSFRHGEGGDREIVHPGNREFAKGDTFDRPQGGDGGSGSQPGEGESVDQFTFSLSRAEFLNLFFEDLELPHLARTQLGDVKQQRWHRAGYTTTGSPSMLSVNRTLKASLSRRVALGVGARAALDAAEQELEAARDAGAPQAELDRLLAEVEKCAARVARVPFLDDLDLRYRNRVAVAVPMARAVMFCLMDVSGSMDEMKKDLAKRFFTLLYMFLSRKYEHVDVIFIRHTDNAEEVDEQTFFYDPKSGGTIVLSALELMHEIVQKRYSPATWNIYAAQASDGDSFGADAGKSARFLAENLLPATRYFAYIEVPDSQEARKSSLWAEYEQESASHFVMRRICERGEIFPVFHDLFKKETVLEHHHHHH", "soluble on expression in E. coli": "soluble"}, {"sequence": "MAGDPMTALKYLQAYPVALQQQVRQLIDEQRLGDYLSQRYPGRHAVQSDKALYSYALELKQEYLRNAPAIDKVLFDNRLDLTHRALGLHTTVSRVQGGKLKAKKEIRIASLFKEAAPEFLRMIVVHELAHFKESDHNKAFYKLCEHMLPGYHQLEFDLRVYLTWRDLQGKAGAPDLEHHHHHH", "soluble on expression in E. coli": "soluble"}, {"sequence": "MAGDRKRGFIRPDEDYALIEPQRWGLPDYGDSKEKKAKQTAFNYDPSWVPNFDEPEEEQALELTEEQIELIKQGAYQEGLYQGQEAGFKQGYDKGKEEGLQAGHAEGLELGKAEGVSAGQEFIQQQVEVFMNLANQFAQPLELMNAQVEKQLVDMVLCLVKEVVHVEVQTNPQIILDTVKQSVEALPISGHPITLHLNPEDVAIIRSAYGEEDLDCRNWTLVSEPSLNRGDVQIEAGESSINYRMEERIKSVLHSFCGANRHQEGE", "soluble on expression in E. coli": "not soluble"}, {"sequence": "MAGGPSALTLIARTSATGAQPLSLRARFPRTRPPMKKIPLAAADPDRLDTWVKYREGLCGECNATCCTLPVEVRIDDLIRMRLVDEFEREEPAKRIAKRLEKDGVIEHFNHKREIFTLTRMANGDCLYLDRKTRLCTIYARRPDTCRNHPRIGPRPGYCAYRPRLEHHHHHH", "soluble on expression in E. coli": "not soluble"}, {"sequence": "MAGHSKWANTRHRKAAQDAKRGKIFTKIIRELVTAAKLGGGDPDANPRLRAAVDKALSNNMTRDTLNRAIARGVGGDDDANMETIIYEGYGPGGTAIMIECLSDNRNRTVAEVRHAFSKCGGNLGTDGSVAYLFSKKGVISFEKGDEDTIMEAALEAGAEDVVTYDDGAIDVYTAWEEMGKVRDALEAAGLKADSAEVSMIPSTKADMDAETAPKLMRLIDMLEDCDDVQEVYHNGEISDEVAATL", "soluble on expression in E. coli": "soluble"}, {"sequence": "MAGKWNVLSLLAFRPCQPALPHDNHGGGMDAIYLKLDGIEGESRIKGFENQIKLIAYNHNPTKRESGEARGTYIGGLTLTKPVDLATPGLYEHYCNGKTVKEGVLTLCRRDKGAMLPFIIYTLTNVRISRMSNHGDAEGSATETVDLVYSHIRWDIPALASKSKTRRPLHRQALWR", "soluble on expression in E. coli": "not soluble"}, {"sequence": "MAGPSDRTFSDQTEEIMQATYRALREHGYADLTIQRIADEYGKSTAAVHYYYDTKDDLLAAFLDYLLERFVDSIHDVETTDPEARLNLLLDELLVKPQENPDLSVALLEMRSQAPYKEAFSDRFRQNDEYVRYMLKAVINHGIDEGVFTDVDAEHVTRSLLTIIDGARTRAVMLDDTEELETARQTASEYADAMLQ", "soluble on expression in E. coli": "soluble"}, {"sequence": "MAGPVFPWRDGNQFELLIDGPAFFPRMLLAIMRAEFQVDLELYLVEAGACAEAVVDALEQAARRGVRVRCLFDDYGSLAFNSALRQRLLDAGVYLRWYNRLRWKRGLRNLYRDHRKLLLVDERWAVVGGTGVTDEFWTPGEATSEWHEVMVQMQGPVVSDWQLLFDRQWQANNRRTAWRPAEGFGLPRLPKVPAQGQGMGRVAYADARQHQDILHALVRALNSGQKRVWLATPYFLPTWSVRRSLRRAASKGLDVRLLLTGPRTDHPSVRYAGHRYYPRLLRAGVRIFEYQPCFLHLKMAVVDDWVSVGSCNFDHWNLRFNLEANIEALDPPLTAAVVASFERDFAQSEEVDLAHWHARPWWRRVKQRIWGWLDRLVVNFLDRRD", "soluble on expression in E. coli": "not soluble"}, {"sequence": "MAGSTLTVKDLHVSIDGKEILKGVNLEVKGGEIHAIMGPNGTGKSTLSSAIMGHPKYEVTEGSIIIDGEDVLEMEVDERAQAGLFLAMQYPSEISGVTNADFLRSAINARREEGDEISLMKFIRKLDKNMEFLEMDPEMAQRYLNEGFSGGEKKRNEILQLMMIEPKIAILDEIDSGLDIDALKVVSKGINEMRGEEFGCLMITHYQRLLNYITPDFVHVMMNGRIVKSGGPELAQRLEAEGYDWIKKELGIEDETTEQEA", "soluble on expression in E. coli": "not soluble"}, {"sequence": "MAGYVGDVAIAYDRDLGHVLFEQYASDIARRTAGKPVRDVLEVASGTGIVTRQLRNVLPGDAQLTAIDISDSMMEVARTKFLPHEQVTFQVANAVALPFDDRAFDTVVCQFGVMFFDKDKAFQETHRVLRQGGRYLFSVWDSRDYNPYASLTFEVMKQFFPSDPPRFLESTVSSFEIDPVKERLIRAGFEQISISVQRRIYDIPDIRAFARGLIFSPIINEIRERGEVDPDDIVEALVKIFIGEYGSNPTRFPMQAILFETEKPLEHHHHHH", "soluble on expression in E. coli": "not soluble"}, {"sequence": "MAHHHHHHLRCAPSKLFRATPLLRVWAAEEDDASAPRTTFRNVRPGRLLRLWRQMRHRAWMLYAWDEEWVSPMQEGYLHQQRLEQVCFAPLSAYGVVPGSYCDPLLYNTKRTSPFRWHVANVQGDVVGHWYMDADELFRIEDWQPREPDDPLEMFPRPPPMLLRWDESVDEHGNRAFRYRYHYDMMGPTGKWEAYPRCPFSHLYHGGPDQHGRAEGYGFQQGHLLRCDEAEEEVLRRIMEGEDREWEMVKRTEAVQEPWSYPGKIRPRDFEGAVEHAKARYRERVRHGKETDPSEDPEYDLVQASEYVEPRDGRRAEWRHLWASGRKPGESLPFHVAFNDGLCFEGNEGGPPAHPAAHYEATPKGAPYGRYEDADAAAARAAEAAHNAACEQSLSEAMARHRRLFGDTSGAPSGPKAPLPTGCRPMRCAPGPPLPSGRSRSSGARAVGSGPVCGAGARDGESEGEGRGGEAPLGYGARACSWRRREGWV", "soluble on expression in E. coli": "soluble"}, {"sequence": "MAHHHHHHMAADKDTPDSLGHSQTMAAEGTKGVATEQQPQASPSSSSAAAAATSMSVAETTATDATTAAASRKAPAPHDKAVAVNEGSTARVAAASSSSSTASSSASVDEQRRRRLALYGSRAMAAGGKKGPALAADPHHPSTPHGSAHGRHALTAFGARRGGELAFYIQQGGDLTSQGRYLVIGDGLMAPFMALCLRVHGLECDLAHHPSQNDLDRGTVVLTPSVTQLMGDVLNVSVPSGSVVGRVLTFDHVGNDMCDVDLNEFREKGESPTFFCCDRLKVESALMSLCRIGAHSCMVLPKPQIDKGGLEPLESGGVRVRFTSGLQQDYLGVICTARNQELVPELTITNEELQARAENAEKYRDTFSKSVRWMELCVPPLPELGKFEKRFTPGSQEIVEILTPRDAKMTVRPTMMATKLFYNVTLTIPDGTADPRLKSTSTKLFWDDVVMHWTSGVPGYISHTMFRPMFTHLQQNFTKSSALVYRTPLFLMPHWSEGGGRVIKVAHAAHGSCFDAVDVSDAQGFTDCFTLARTIAGGEDVAAFLKERRLQVMEEMDHHSRLTYYGLKERGQMAYMMSRFNMKIMRKYKKSWRSILQNYVTLMPKSIPR", "soluble on expression in E. coli": "soluble"}, {"sequence": "MAHHHHHHMAASYLVLQRYTDLINSGDLDAAFNYLSEDIIYVTWLGVIEGKDNVVTFLRDNMRFLHFAKHFNRWRQVQHCLDADLSRHCDDSDVGGSNLFDRDGYDRQGYASFERDGMIANIVKLSMQKTRVRETVVIRDNKVVLVTLMEQL", "soluble on expression in E. coli": "not soluble"}, {"sequence": "MAHHHHHHMADLYDVLGILHDAEDDAIAKAYRRHSMAVNPQCNPDHPDPAALEKQFKHVSQAYVVLSNPKARGIYDLYGEEGVRHGGTGAQGIPGGIDLDAIDPYAVFRSFFGVDNPFQVIGEINGLRNNRHNFFSSTAVIPKSLVKAPSIEVQLPVTLEDVYYGAVRRASWKCSFVRQGNETVVEEFFELRVPKGAHAGDKFVVDGKGDWEEGRARGDVVVVLELLPHERFRREGDDLVVRVPITLREALCGVTLTVQTMEGTDVAVLIDEIVHPKYSRRVVGQGLPRNDEPSNPRGDLIVECDTTFPGFLTLEQKSELSRILDAK", "soluble on expression in E. coli": "not soluble"}, {"sequence": "MAHHHHHHMAEPNASGFRVIQILENYGVASSDIKKLMECGFYTVESAAYAPKKAILAVKGISENKAEKIMAECAKLVPMGFTSAVAYHEARKEIIMVTTGSREVDKLLGGGIETGSITELFGEFRTGKTQLCHTLCVTCQLPISQGGAEGMALYIDTEGTFRPERLVAVAERYKLDPEDVLANVACARAFNTDHQQQLLLQASAMMAENRFALIIVDSATALYRTDYSGRNELAARQMHLGKFLRSLHNLAEEYGVAVVVTNQVVANVDGSAQMFQADSKKPIGGHIMAHASTTRLSLRKGRGEQRIIKVYDSPCLAEAEAIFGIYDDGVGDARD", "soluble on expression in E. coli": "not soluble"}, {"sequence": "MAHHHHHHMAGSIRYFIDPRGALSPCAPAESSTPRAGGTKVPRTAEAKSSPNSPPELSSAVPLDGLCRAYEAADGRSGSAFLQVYSVGAHGLLSPEAKAVITGCTMAALRSRLSHLLGLLPHERLNGADSALGMSAVAVLNRYCRATAALPPPSPSAMQPRCGTDTDGGGMRGRGWVVTWALELVLCVAASRIVAGPPLATACPPLCVSDCGDVIMASLHFGLGVRLQRDAVAHHDERTIASSTPLTSAAERCPRYAALSVQLTECTPASSHPLDVRCAVDVTRVIYVNHIRSAQAHAEDGTDAFQRLARCEGGVSDPLSVATARDAWAEALQSYQASAIASQGGVLFVLTHDLSVQSGPAALLPLTVREERSRSHAAEMSHDVAFPPALRDHVLASVRVRSAPVYFNHILLCQAWSSDDVVAEAHARHWAEKLANDGALAPARVAVEWRASLLVSRAKGGAAVTSDAGGSQTLAPTPLQWVLYTARRQLVVAVANRSQVVLTGRRRGLDRTAAEATTKAAQFSPSALRALAEQCVKALPVARGLLGWHCPWPVPSCLQNTDTCTAIPSAAAVEEVLWTLRMLGKLRWRAAQLYEAAGDSAEQHRQLRALRADVQRWSSRRRARTLAADGTTLACEATAWTPTVEDVVCHVDDGDWGALTKELSSMLPPA", "soluble on expression in E. coli": "not soluble"}, {"sequence": "MAHHHHHHMANISPNSDGDSFVGADTAKQLSDIQKKLNDLKQRREELEEQRRRILGASDQSSSRPRSLRGPTQNRRRHSQPSQRTLPLRPPRPPISDHSIRIPNEKERQQTAQRTPYLEMKESMRRSWSRDSSLVMGSFLMEDNPRARTFTRERRFIPPPECNGIYFLGTEMELMIRNKNVAPSQRSGRRDNTPYRWNDIIDGVTPGPGAYTPLFSKVSKPSRRAQLF", "soluble on expression in E. coli": "not soluble"}]}]}
